Laboratory results from publication PMC3980048.

Target: HIV-1 clade C (CZA97.012) gp140 Env trimer (HIV-1 clade C, strain CZA97.012)
Assay: SEC

HIV-1 clade C (CZA97.012) gp140 Env trimer (natural protein)
stoichiometry N: 3
